T1: human CD14 (Homo sapiens, UniProt P08571)
T1 construct: endogenous in cells; host or cells: monocytes in fresh human whole blood (lepirudin)
T1 sequence (P08571 20-345): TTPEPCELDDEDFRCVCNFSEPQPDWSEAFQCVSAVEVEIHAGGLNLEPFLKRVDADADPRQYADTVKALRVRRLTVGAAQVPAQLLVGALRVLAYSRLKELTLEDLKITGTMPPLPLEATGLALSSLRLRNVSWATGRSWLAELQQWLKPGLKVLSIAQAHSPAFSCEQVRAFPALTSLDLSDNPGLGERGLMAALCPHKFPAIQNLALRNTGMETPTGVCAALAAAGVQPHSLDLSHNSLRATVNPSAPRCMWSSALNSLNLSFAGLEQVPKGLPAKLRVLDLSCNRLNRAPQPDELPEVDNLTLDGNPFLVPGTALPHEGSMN


How the values were obtained:
complement activation = conditions: pigs; cited from earlier work
porcine whole blood = assay: rMil2 combined with C5 inhibitor OmCI: cytokine production in porcine whole blood ex vivo; type: cell-based; conditions: E. coli-incubated porcine whole blood
Protocol: (§1) The whole blood model has been described in detail previously (36). Fresh human venous or porcine arterial blood was drawn directly into tubes containing the anticoagulant lepirudin (Pharmion) at a final concentration of 50 mg/ml. In 1.8-ml Cryo Tube vials (Nunc, Roskilde, Denmark), the blood was preincubated with up to 20 mg/ml anti-human CD14 (r18D11 or 18D11), or 50 mg/ml anti-porcine CD14 (rMil2 or Mil2) at 37° C. for 10 min prior to an additional 2-h incubation in the presence of 100 ng/ml ultrapure LPS from Escherichia coli 0111:B4 (InvivoGen, San Diego, Calif.) for human blood or 1 3 105/ml heat-inactivated E. coli (strain LE392, ATCC33572) for porcine blood. As negative controls, PBS with MgCl2 and CaCl2 (Sigma-Aldrich) and isotype controls were used. Adverse effects were tested using nonactivated whole blood samples. After the addition of 10 mM (human) or 20 mM (porcine) EDTA, plasma was gained by 15 min centrifugation at 3220 3 g and 4° C. Levels of TNF, IL-6, and IL-1b in human plasma were determined using Bioplex technology (Bio-Rad Laboratories AB). Levels of TNF, IL-1b, and IL-8 in porcine plasma were determined using ELISA (Quantikine, R&D Systems, Minneapolis, Minn.). Platelet count was quantified by impedance using a CELL-DYN Sapphire hematology analyzer (Abbott Laboratories, Abbott Park, Ill.).
Whole blood was incubated with 1 3 106 E. coli per milliliter for 2 h at 37° C. in the absence or presence of inhibitors and controls. TNF, IL-1b, and IL-8 blood was analyzed as described above.

human whole blood [1] = assay: Unwanted effects (complement activation, oxidative burst) in nonstimulated human whole blood; type: cell-based; conditions: 10 mg/ml Ab; for complement activation: not shown; for monocyte oxidative burst: flow cytometry
Protocol: as §1

human whole blood [2] = assay: Whole blood ex vivo model of inflammation, LPS-induced cytokine release in human blood; type: cell-based; set-up: Ab concentration at which maximum inhibitory effects were reached: unit not given here; conditions: for E. coli ultrapure LPS-induced release of IL-1b, TNF and IL-6: 100 ng/ml LPS, dose-dependent; for Ab concentration at which maximum inhibitory effects were reached: LPS-induced IL-1b, TNF, IL-6 release
Protocol: as §1

human CD14 = molecular target: T1, human CD14; assay: CD14 binding in flow cytometry, human whole blood (displacement of 18D11 from monocytes)
Protocol: Fresh human or porcine whole blood was drawn into tubes containing the anticoagulants lepirudin (Refludan; Pharmion, Copenhagen, Denmark) or EDTA, respectively. Blood samples were preincubated for 10 min with Ab, #20 mg/ml anti-human CD14 Abs r18D11, 18D11 F(ab)92 (batch 2068, lot 1383), or isotype controls raNIP and mIgG1 F(ab)92 (lot 1501), or […] anti-porcine CD14 Abs rMil2, Mil2 (lot 1106), or the isotype controls 4770 RECOMBINANT ANTI-CD14 Abs Downloaded from University of Oslo, Library of Medicine and Health Science on Jan. 24, 2014 for IgG2/4 and mIgG2b, eculizumab (Soliris) and mIgG2b (lot 1631), respectively. […] Their binding was detected either by using a secondary PEconjugated anti-mouse IgG or through direct FITC fluorescence. […] In subsequent flow cytometry analyses, human monocyte and porcine granulocyte populations were selected based on the forward scatter-side scatter dot plot, and CD14 binding was recorded as mean or median fluorescence intensity, respectively. […] Fluorescence intensities in the presence of the fluorescently labeled Abs only were set to 100%. Flow cytometry analyses on human samples were performed using an LSRII and FACSDiva software version 5.0.3; porcine samples were analyzed on a FACSCalibur using Cell Quest Pro version 5.2.1 for data acquisition (all from BD Biosciences).

| Molecule | inhibition of complement activation (complement activation) | IL-1b release (effect in words) (porcine whole blood) | IL-8 release (effect in words) (porcine whole blood) | TNF release (effect in words) (porcine whole blood) | complement activation (human whole blood [1]) | E. coli ultrapure LPS-induced release of IL-1b, TNF and IL-6 (human whole blood [2]) | Ab concentration at which maximum inhibitory effects were reached (human whole blood [2]) | monocyte oxidative burst (human whole blood [1]) | 18D11 displaced from its binding sites on human monocytes (human CD14; 10 mg/ml r18D11 vs 10 mg/ml 18D11 (equimolar)) | binding to CD14 on human monocytes (competition with 18D11) (human CD14; human whole blood) |
| --- | --- | --- | --- | --- | --- | --- | --- | --- | --- | --- |
| OmCI: endotoxin-free recombinant bacterial OmCI (coversin), a 16.8-kDa protein, complement C5 inhibitor (protein, UniProt Q5YD59 19-168, looked up) Complement inhibitor: DSESDCTGSEPVDAFQAFSEGKEAYVLVRSTDPKARDCLKGEPAGEKQDNTLPVMMTFKNGTDWASTDWTFTLDGAKVTATLGNLTQNREVVYDSQSHHCHVDKVEKEVPDYEMWMLDAGGLEVEVECCRQKLEELASGRNQMYPHLKDC | inhibit complement activation effectively | not significantly reduced | significantly reduced to almost baseline | significantly reduced |  |  |  |  |  |  |
| F(ab)92 fragment of 18D11: F(ab)92 fragment of the murine anti-human CD14 clone 18D11 (Diatec) (antibody, V domains shown) VH: EVQLVESGGGLMQPKGSLKLSCAASGFTFKTYALNWVRQAPGTGLEWVARIRSKSNNYTTYYADSVKDRFTISRDDSQNMLYLQMNNLKTEDTAMYYCVRPQSGTSFAYWGQGTLVTVSAA VL: NIVLTQSPASLAVSLGQRATISCRASESVDSYGNSFMHWYQQKPGQPPKLLIYLASNLESGVPARFSGSGSRTDFTLTIDPVEADDVATYYCQQNNGDPYTFGGGTKLEIIR |  |  |  |  | did not |  |  |  |  |  |
| 18D11: mouse anti-human CD14 IgG1 clone 18D11 (Diatec), original murine clone (antibody, V domains shown) VH: EVQLVESGGGLMQPKGSLKLSCAASGFTFKTYALNWVRQAPGTGLEWVARIRSKSNNYTTYYADSVKDRFTISRDDSQNMLYLQMNNLKTEDTAMYYCVRPQSGTSFAYWGQGTLVTVSAA VL: NIVLTQSPASLAVSLGQRATISCRASESVDSYGNSFMHWYQQKPGQPPKLLIYLASNLESGVPARFSGSGSRTDFTLTIDPVEADDVATYYCQQNNGDPYTFGGGTKLEIIR |  |  |  |  | same low level of complement activation | inhibited | 10 | significantly induced |  |  |
| r18D11: recombinant anti-human CD14 mouse/human chimeric IgG2/4 Ab; VL SEQ ID NO:1, VH SEQ ID NO:2 (antibody, V domains shown, human IgG2/4 constant regions) VH: MGWSCIILFLVATATGVHSEVQLVESGGGLMQPKGSLKLSCAASGFTFKTYALNWVRQAPGTGLEWVARIRSKSNNYTTYYADSVKDRFTISRDDSQNMLYLQMNNLKTEDTAMYYCVRPQSGTSFAYWGQGTLVTVSAA VL: MGWSCIILFLVATATGVHSNIVLTQSPASLAVSLGQRATISCRASESVDSYGNSFMHWYQQKPGQPPKLLIYLASNLESGVPARFSGSGSRTDFTLTIDPVEADDVATYYCQQNNGDPYTFGGGTKLEIIR |  |  |  |  | same low level of complement activation | inhibited | 10 | did not induce significant oxidative burst | 50% | dose-dependently outcompeted |

Reference: patent US20170107294A1, “ANTI-CD14 ANTIBODIES AND USES THEREOF” (Nordlandssykehuset HF, priority 2014, published 2017)
